Source: patent publication US9365620B2, “Methods for treating pain” (NoNO NC., priority 2008, dated 2016)
“Also recorded” adds a separate entry of the source. Non-standard residues stand in square brackets, D forms with d. No end group written: not given here. Tle = CC(C)(C)[C@H](N)C(=O)O; Nva = CCC[C@H](N)C(=O)O

Columns and labels:
[1] = molecular target: N-type calcium channels (Mus musculus, UniProt O55017); assay type: cell-based, Swiss mice
[2] = tested on: pain hypersensitivity after peripheral nerve injury; assay: Paw withdrawal threshold (von Frey) after chronic constriction injury of the sciatic nerve; assay type: in vivo, Sprague-Dawley rats
Source text: In these experiments, chronic constriction injury of the sciatic nerve was induced using the polyethylene cuff method (Mosconi T, Kruger L., Pain 1996, 64: 37-57). The left sciatic nerve of adult male Sprague-Dawley rats was exposed at mid-thigh level under halothane anesthesia. A polyethylene cuff (PE90 tubing, 2 mm in length) was slit open longitudinally and implanted around the sciatic nerve, and the animals were allowed to recover for a suitable period, e.g., 10-14 days. A sterile isotonic saline solution containing dissolved Tat-NR2B9c, or a saline-only control, was injected into the tail vein, with the animal under brief halothane anesthesia. Sensitivity to pain was measured by testing the paw withdrawal threshold of animals. Paw withdrawal thresholds to mechanical stimulation were assessed using Von-Frey filaments (Stoelting Co., Wood Dale, Ill., USA). Animals were placed in plastic cages with a plastic bottom. To test the tactile threshold required to evoke withdrawal of the stimulated paw, von Frey filaments (0.008-15.18 g) were applied perpendicularly to the plantar part of the hind paw in an ascending order. Each filament was applied for 5 times, and the paw withdrawal threshold was determined when there were three positive responses out of five times a filament was applied. To avoid tissue damage, the cut off threshold was assigned as 15.18 g.

[3] = molecular target: N-type Ca channels (Homo sapiens, UniProt Q00975); assay type: binding; conditions: peptide at 10 μM

| Sequence | Ca^2+ current shown as a percentage [1] | inhibition of N-type calcium channel activity [1] | other results |
| --- | --- | --- | --- |
| FGRKKRRQRRRALSSIESDV (synthetic 1995 peptide F-Tat-NR2B9c K to A) [Peptide 1995] | 97+/−0.2% | – | – |
| KLSSIESDV (synthetic 1991 peptide 2B9c) [Peptide 1991, peptide 2B9c, the C-terminal portion of Tat-NR2B9c] | 94+/−1.7% | no significant inhibition | – |
| YGRKKRRQRRR [Peptide 1990] | 57+/−1.6% | – | – |
| YGRKKRRQRRRALSSIESDV (synthetic 1994 peptide Tat-NR2B9c K to A) [Peptide 1994] | 77+/−1.8% | no significant inhibition; also recorded: some reduction in the amount of N-type calcium channel activity | – |
| YGRKKRRQRRRKLSSIEADA (synthetic 1992 peptide Tat-NR2B9c-AA) [Peptide 1992] | 74+/−2.4% | some reduction in the amount of N-type calcium channel activity | – |
| YGRKKRRQRRRKLSSIESDV (Synthetic peptide Tat-NR2B9c) [chimeric peptide of a standard tat peptide and …] | – | – | reversal of pain hypersensitivity (paw withdrawal threshold) ([2]; high dose, 10 mg/kg i.v., rats, 60, 90, 120 min, 10 mg/kg): did not result in any apparent reversal of pain hypersensitivity; also recorded: had no effect on pain hypersensitivity; also recorded: showed no effect on pain hypersensitivity; reversal of pain hypersensitivity (paw withdrawal threshold) ([2]; low dose, 100 pmol per animal i.v., rats, day 10-14 after surgery): reversed pain hypersensitivity; also recorded: showed a decrease in pain hypersensitivity |
| YGRKKRRQRRRKLSSIESDV [1987] ([dY]G[dR][dK][dK][dR][dR][dQ][dR][dR][dR][dK][dL][dS][dS][dI][dE][dS][dD][dV]) [Peptide 1987, D-isomer of Tat-NR2B9c] | 82+/−2.2% | some reduction in the amount of N-type calcium channel activity | – |
| YGRKKRRQRRRKLSSIESDV [Tat-NR2B9c] (Synthetic peptide Tat-NR2B9c) [chimeric peptide of a standard tat peptide and …] | – | – | inhibition of radiolabeled ω-Conotoxin GVIA binding to N-type Ca channels [3]: 100% |
| YGRKKRRQRRRKLSSIESDX [1976] (YGRKKRRQRRRKLSSIESD[Nva]) [Peptide 1976, …X where X=norvaline] | 66+/−3.4% | – | – |
| YGRKKRRQRRRKLSSIESDX [1977] (YGRKKRRQRRRKLSSIESD[Tle]) [Peptide 1977, …X where X=L-t-butyl-glycine] | 65+/−5.1% | – | – |
